Test results: US20160009799A1 (ORDER MADE MEDICAL RESEARCH, published 2016)

Tests used:
[1] = molecular target: T1, SLC6A6 (solute carrier family 6 (neurotransmitter transporter, taurine), member 6) on human colorectal cancer … (human, UniProt P31641 1-620); test: flow cytometry on 10 colorectal cancer cell lines, antibody at 1 ug/mL
T1 construct: Endogenous protein on ten colorectal cancer cell lines (Caco-2, COLO201, DLD-1, HCT15, HCT116, HT-29, LoVo, SW480, SW620, WiDr); also called native SLC6A6
T1 sequence: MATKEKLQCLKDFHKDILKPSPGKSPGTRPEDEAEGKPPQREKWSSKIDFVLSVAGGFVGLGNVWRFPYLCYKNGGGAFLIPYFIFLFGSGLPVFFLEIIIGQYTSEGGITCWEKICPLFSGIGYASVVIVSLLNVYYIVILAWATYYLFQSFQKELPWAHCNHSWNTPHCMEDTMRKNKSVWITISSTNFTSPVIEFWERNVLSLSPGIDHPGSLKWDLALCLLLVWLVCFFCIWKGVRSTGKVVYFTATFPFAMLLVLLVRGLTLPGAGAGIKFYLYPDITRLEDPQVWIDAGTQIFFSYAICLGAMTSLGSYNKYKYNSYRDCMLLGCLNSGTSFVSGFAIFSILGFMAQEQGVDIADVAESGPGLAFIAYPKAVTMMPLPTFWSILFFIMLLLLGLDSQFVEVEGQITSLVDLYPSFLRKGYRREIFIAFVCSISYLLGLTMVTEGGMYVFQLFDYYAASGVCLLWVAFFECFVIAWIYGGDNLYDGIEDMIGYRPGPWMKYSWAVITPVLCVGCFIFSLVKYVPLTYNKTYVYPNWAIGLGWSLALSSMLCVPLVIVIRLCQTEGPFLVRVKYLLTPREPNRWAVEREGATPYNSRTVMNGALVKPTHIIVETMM
Protocol: Ten lines of colorectal cancer cells were each cultured to reach 90% confluency. The cells of each line were washed twice with PBS, detached with a scraper and collected into a 1.5 mL tube. 4B9b and 5H12d antibodies were each added to give a final concentration of 1 μg/mL, followed by reaction for 60 minutes. After washing twice with PBS+2% FBS, AlexaFluor 488-labeled goat anti-mouse IgG (Invitrogen) was added as a 1/1000 dilution in PBS+2% FBS, followed by reaction for 30 minutes. After washing twice with PBS+2% PBS(FBS?), the cells were analyzed by Guava Flow Cytometry (Millipore).

[2] = molecular target: T2, partial protein of the extracellular region of SLC6A6 (amino acid residues 143 to 216), His tag at the … (human, UniProt P31641 143-216); test: ELISA on plate-bound recombinant SLC6A6 partial protein, antibody 0 to 40 ug/mL
T2 construct: also called SLC6A6 partial protein for screening; recombinant protein obtained in (6); not shown: His tag added to the C-terminal end (pET32 vector)
T2 sequence: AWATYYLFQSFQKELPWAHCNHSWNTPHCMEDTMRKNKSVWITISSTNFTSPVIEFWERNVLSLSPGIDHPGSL
Protocol: The recombinant protein obtained in (6) above (10 μg/ml) was dispensed in 100 μL volumes into MaxiSorp 96-well plates (Nunc) and adsorbed onto the plates at room temperature for 1 hour. After adsorption, each well was washed with TBS-T (25 mM Tris, 150 mM NaCl, 0.05% (v/v) Tween 20, pH 7.4) and charged with skimmed milk (GIBCO), which had been diluted at a concentration of 5% with TBS-T, to conduct blocking for 30 minutes at room temperature. After each well was washed three times with 200 μL TBS-T, […] ELISA plates in a volume of 100 μL per well, followed by reaction at room temperature for 1 hour. Each well was washed three times with […] TBS-T.
For use as a secondary antibody, anti-mouse IgG polyclonal antibody-HRP label (BETHYL) was diluted 5,000-fold with TBS-T. The above antibody dilution was added in a volume of 100 μL per well and reacted at room temperature for 30 minutes. Each well was washed three times with 200 μL TBS-T. Orthophenylenediamine (Sigma) was diluted with 50 mM carbonate-citrate buffer (pH 5.0) to give a final concentration of 0.5 mg/mL and mixed with 1/10,000 volumes of 35% (w/w) aqueous hydrogen peroxide (WAKO). […] The absorbance at 492 nm was measured with a plate reader (SpectraMax Plus 384, Molecular Devices) to analyze antibody titers, which were then used for selection of mice to be used for cell fusion. […]

B1: 4B9b antibody (produced by Mouse-Mouse hybridoma 4B9b, FERM BP-11413) (antibody, mouse IgM, V domains shown)
VH: QVKLQQSGAELMKPGASVKISCKATGYTFSRYWIEWVKQRPGHGLEWIGEILPGSGSTNYNEKFKGKATFTADTSSNTAYMQLSSLTSEDSAVYYCARGGFLGHYGFAYWGQGTLVTVSA
VL: DIQLTQSPTTMAASPGEKITITCSASSSISSNYLHWYQQKPGFSPKLLIYRTSNLASGVPARFSGSGSGTSYSLTIGTMEAEDVATYYCQQGSSIPYTFGGGTKLEIK
notes: also called anti-SLC6A6 antibody, 4B9b
binding result [1]: binds

B2: mouse IgG1-converted anti-SLC6A6 antibody (4B9b) (antibody, V domains shown)
VH: QVKLQQSGAELMKPGASVKISCKATGYTFSRYWIEWVKQRPGHGLEWIGEILPGSGSTNYNEKFKGKATFTADTSSNTAYMQLSSLTSEDSAVYYCARGGFLGHYGFAYWGQGTLVTVSA
VL: DIQLTQSPTTMAASPGEKITITCSASSSISSNYLHWYQQKPGFSPKLLIYRTSNLASGVPARFSGSGSGTSYSLTIGTMEAEDVATYYCQQGSSIPYTFGGGTKLEIKR
notes: Expressed in Cos7 cells and purified on Protein G; also called mouse IgG-converted antibody; mouse IgG-chimerized antibody
binding result [2]: binds
